Bridge positions count the residues as written; N and C are the ends. Square brackets hold non-standard residues; d marks the D form. Ends that are not written are not given here. S5 = C=CCCC[C@](C)(N)C(=O)O

This note sets out measurements from patent US12366576B2, “Compositions, assays, and methods for direct modulation of fatty acid metabolism” (Dana-Farber Cancer Institute, Inc., priority 2016, dated 2025).

In one experiment the target is T1, VLCAD (Mus musculus, UniProt P50544).
T1 construct: As for native VLCAD from MEF lysates; endogenous in cells; host or cells: SV-40-transformed wild-type mouse embryonic fibroblasts (lysate)
T1 sequence (P50544 42-656): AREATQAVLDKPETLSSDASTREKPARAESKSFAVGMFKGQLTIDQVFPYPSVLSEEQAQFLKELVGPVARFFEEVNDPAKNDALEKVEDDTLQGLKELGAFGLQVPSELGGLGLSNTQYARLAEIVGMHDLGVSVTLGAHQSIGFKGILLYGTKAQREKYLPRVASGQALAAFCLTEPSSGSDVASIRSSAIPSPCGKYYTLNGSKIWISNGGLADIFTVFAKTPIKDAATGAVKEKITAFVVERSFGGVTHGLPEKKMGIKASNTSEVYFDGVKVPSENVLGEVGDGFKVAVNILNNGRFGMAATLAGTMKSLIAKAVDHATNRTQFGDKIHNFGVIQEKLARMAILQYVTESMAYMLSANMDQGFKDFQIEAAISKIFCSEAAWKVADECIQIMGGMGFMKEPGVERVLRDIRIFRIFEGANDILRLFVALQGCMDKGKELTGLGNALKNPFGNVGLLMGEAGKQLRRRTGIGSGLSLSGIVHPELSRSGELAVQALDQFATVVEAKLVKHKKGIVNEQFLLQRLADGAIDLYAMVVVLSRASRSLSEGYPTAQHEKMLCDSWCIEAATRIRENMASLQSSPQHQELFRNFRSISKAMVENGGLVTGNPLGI
Description: Biotinylated SAHB streptavidin pulldown from MEF lysates with MS-based protein identification. Format: binding. Particulars: wild-type MEF lysates; three biological replicates; thresholds fold change >8 and p<0.005 versus vehicle. As for the experimental part:
An exploratory proteomics analysis was conducted to identify proteins that interact with the MCL-1 BH3 domain helix. An extensive library of MCL-1 stapled BH3 peptides (FIG. 2) was generated to both identify novel protein interactors by mass spectrometry and then deploy the stapled peptide constructs as novel probes to dissect and pharmacologically modulate the identified protein interactors and associated signaling pathways. As an example, an N-terminally biotinylated stapled peptide designed based on the sequence of MCL-1's BH3 domain (Btn-MCL-1 SAHBD), or vehicle, was incubated with wild-type mouse embryonic fibroblast (MEF) lysates, followed by high stringency streptavidin capture. To validate the proteomics workflow and ensure that Btn-MCL-1 SAHBD could, in fact, engage protein interactors in a lysate, eluates were first run on a gel for anti-MCL-1 Western analysis. […]
Wild-type MEFs were trypsinized, washed once with cold PBS, and lysed on ice with NP-40 lysis buffer (50 mM Tris, pH 7.4, 150 mM NaCl, 0.5% (v/v) NP-40, complete protease inhibitor pellet (Roche)) using 1 ml of lysis buffer for every 10 million cells lysed. Cellular debris was pelleted at 14,000 g for 10 min at 4° C., and the supernatant was quantified using the BCA Protein Assay Kit (Thermo Fisher Scientific). […]

The target in the next experiment is T2, MCL-1ΔNΔC (Homo sapiens, UniProt Q07820).
T2 construct: The MCL-1ΔNΔC construct was grown and expressed in E. coli as previously described; made in house; host or cells: E. coli BL21(DE3)
T2 sequence (Q07820 172-320 limits assumed, stated change not applied): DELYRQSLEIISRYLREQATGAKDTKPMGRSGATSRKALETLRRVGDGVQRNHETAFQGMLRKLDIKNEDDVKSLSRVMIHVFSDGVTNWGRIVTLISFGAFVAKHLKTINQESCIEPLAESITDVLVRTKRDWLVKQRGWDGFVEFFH
Description: Biolayer interferometry. The format is binding. Particulars: Biotin-PEG peptide immobilized on streptavidin sensors. For orientation: BLI is a label-free optical method that tracks binding on a fibre tip over time.

Regarding “MCL-1 SAHBD: hydrocarbon-stapled peptide mimicking the MCL-1 BH3 domain (Stabilized Alpha-Helix of BCL-2 Domain), SEQ ID NO:19 (RKALETLRRVGDGV[S5]RNH[S5]TAF; staple 15-19)”, the “VLCAD identified by MS in pulldown eluates” value in the experiment with VLCAD was “repeatedly identified as a high stringency interactor”. Moreover, the “biolayer interferometry association with MCL-1” value with MCL-1ΔNΔC was “bind to MCL-1”.
